Laboratory results from publication PMC5420313.

Target: GST-Dyn2(DQR)_(motor) (D1406A/Q1407A/R1410A mutant of GST-Dyn2_(motor)) (human) (UniProt Q8NCM8)

maximum velocity of microtubule gliding by the unstacked GST-Dyn2(DQR) (motor): 562 nm/s
Substance: GST-Dyn2(DQR)_(motor) (D1406A/Q1407A/R1410A mutant of GST-Dyn2_(motor)), Q8NCM8 1091-4307
